The target in this assay is chicken LPCAT3 (cLPCAT3), Twin-Strep tag removed, purified in LMNG/GDN (Gallus gallus). The assay can be described thus: cryo-EM structure; cLPCAT3 extracted with LMNG, dimer fractions from SEC in GDN; with 0.2 mM arachidonoyl CoA (3.49 Å) or 0.5 mM 12:0-LPC (3.57 Å); C2 symmetry.

Consider 1 substance from article PMC8617236.

By stoichiometry N is commonly meant a count of units in the complex or per binding partner. Take “chicken LPCAT3 (cLPCAT3), Twin-Strep tag removed, purified in LMNG/GDN (enzyme)”: the stoichiometry N is 2.
